Values joined by “and” are separate entries in the source; they are usually repeats but may differ in a detail not shown here. Equal values may be shown once.
Experiments:
[1] = target: the molecule itself; experiment: small-angle neutron scattering (SANS); 5.3 mg/mL Cyt c′ in D2O, 20 mM phosphate buffer, pD 9.6; KWS-1 beam line; Rg and curve compared with those of the crystal dimer; MW ratio from I(0)/C against the pD 1.7 sample; dimer to monomers
[2] = target: the molecule itself; experiment: small-angle neutron scattering (SANS); 5.5 mg/mL Cyt c′ in D2O, 20 mM phosphate buffer, pD 6.4; KWS-1 beam line; Rg and curve compared with those of the crystal dimer; MW ratio from I(0)/C against the pD 1.7 sample; dimer to monomers

B1: Cytochrome c′ from Alcaligenes xylosoxidans NCIMB 11015 (natural protein, UniProt P00138 1-127, looked up)
chain: QFAKPEDAVKYRQSALTLMASHFGRMTPVVKGQAPYDAAQIKANVEVLKTLSALPWAAFGPGTEGGDARPEIWSDAASFKQKQQAFQDNIVKLSAAADAGDLDKLRAAFGDVGASCKACHDAYRKKK
modifications: heme prosthetic group embedded in the C-terminal region
notes: Cytochrome c′ (c-type cytochrome, four-α-helix bundle) of Alcaligenes xylosoxidans NCIMB 11015; helices A(Ala3-Lys31), B(Asp37-Phe59), C(Ala76-Asp98), D(Asp103-Arg124); His120 axial ligand; crystal structures PDB 4WGZ and 4WGY are of the same protein; also called Cyt c′; Cyt c'
stoichiometry N [1]: 1.9 and 1.8
stoichiometry N [2]: 2.1 and 2

— article PMC8774185, “Open-Bundle Structure as the Unfolding Intermediate of Cytochrome c′ Revealed by Small Angle Neutron Scattering” (Biomolecules, 2022)
